# Experimental data reported in patent US20220009987A9, “HUMAN RESISTIN COMPOSITIONS AND METHODS OF TREATING TLR4-MEDIATED DISEASE AND INFECTION” (THE REGENTS OF THE UNIVERSITY OF CALIFORNIA, priority 2017, published 2022).
# “Also recorded” adds a separate entry of the source.
# B1: hRetn: human resistin protein (hRetn) having an amino acid sequence of SEQ ID NO: 1; recombinant, E. coli-derived or 293T cell-derived (protein, listed as Homo sapiens)
# chain: MKALCLLLLPVLGLLVSSKTLCSMEEAINERIQEVAGSLIFRAISSIGLECQSVTSRGDLATCPRGFAVTGCTCGSACGSWDVRAETTCHCQCAGMDWTGARCCRVQP
# Legend:
# C57BL/6 mice = test: LPS-induced endotoxic shock model with recombinant hRetn treatment; format: in vivo, mouse; settings: for survival after LPS injection: 0.5 μg hRetn i.p. prior to LPS, vs PBS control
# Source text: Mice. Human resistin transgenic mice were generated on a mouse Retn−/− background as previously described in Park et al., 2011, “Inflammatory induction of human resistin causes insulin resistance in endotoxemic mice,” Diabetes 60(3):775-783, the entire content of which is herein incorporated by reference. Briefly, the human resistin gene, along with 21,300 bp upstream and 4,248 bp downstream of the human resistin start site were inserted through a bacterial artificial chromosome (BAC). Genome insertion of hRETN in the two transgenic mouse lines was determined by Dartmouse™, which sequences and analyzes thousands of SNPs throughout the mouse genome. For the endotoxic shock model, mice were injected i.p. with two doses of LPS (Sigma): 0.05 mg/kg LPS followed by 12 mg/kg LPS (females) or 20 mg/kg LPS (males) 12 hours later. Mice were monitored at least twice a day and euthanized according to humane endpoints. For treatment with recombinant resistin, C57BL/6 mice were injected i.p. with PBS or 0.5 μg hRetn (Peprotech). Nippostrongylus brasiliensis life cycle was maintained in Sprague-Dawley rats, as previously described in Jang et al., 2015, “Macrophage-derived human resistin is induced in multiple helminth infections and promotes inflammatory monocytes and increased parasite burden,” PLoS Pathog 11(1):e1004579, the entire content of which is herein incorporated by reference. Mice were anesthetized with isoflurane and injected subcutaneously with 500 L3 larvae. Serum collection was by retro-orbital bleeding and body temperature was measured by rectal thermometer (Braintree Scientific). All animals in the experiment were age-matched (6-8 week old), gender-matched and housed in a specific pathogen free facility.
# Vascular Permeability Assay. Evan's blue dye was used to measure vascular permeability. Mice were anesthetized by isoflurane and 200 μL of 0.5% Evan's Blue dye in PBS was injected reto-orbitally. After 10 minutes, mice were euthanized by CO2 and perfused with 20 mL PBS. Tissue was excised, weighed and incubated with 500 μL N, N-dimethylformamide (Sigma) for 24 hours at 55° C. Extracted Evan's blue was measured at 610 nm according to a standard curve.
# Binding Assay and Flow Cytometry. Single cell suspension of lung tissue was prepared and hRetn binding was measured as previously described in Jang et al., 2015, supra. Briefly, dissociated lung cells were incubated for 1 hour at 4° C. with 0.5 μg recombinant hResistin (Peprotech) or PBS, followed by 2× wash in FACS buffer, incubation with Fc block (5 μg/mL αCD16/32 and 10 μg/mL purified rat IgG1, 5 min at 4° C.). Cells were stained with biotinylated α-hRetn (Peprotech, 30 min at 4° C.) followed by detection with BV605-conjugated streptavidin (BD) and surface marker antibodies. To collect peritoneal exudate cells (PECs), the peritoneal cavity was washed and PECs recovered in 5 mL ice cold PBS. Surface marker antibodies were: F4/80 (clone A3-1), SiglecF (clone E50-2440), CD4 (clone RM4-5), Ly6C (HK1.4), CD11b (clone M1/70), CD11c (clone N418), Ly6G (clone 1A8), MHCII (clone M5/114.15.2) and CD3e (clone 145-2C11), CD115 (clone AFS98), purchased from Affymetrix, BD Biosciences or Biolegend. Cell populations were determined as follows: peritoneal macrophage (F4/80+CD11b+), neutrophils (Ly6G+CD11b+), eosinophils (SiglecF+CD11c−) and monocyte (Ly6C+CD11b+), alveolar macrophages (F4/80+CD11c+). For flow cytometric analysis, all samples were run on the BD LSRII and analyzed on FlowJo (v10).
# Cytokine Quantification. Sandwich ELISAs were performed using capture and biotinylated antibodies for human resistin (Peprotech), IL-10 and TNFα (BD Biosciences) according to manufacturer's instructions. Detection was performed with streptavidin-peroxidase (Jackson ImmunoResearch) and TMB peroxidase substrate (BD Biosciences), followed by addition of 2N H2SO4. Optical density (OD) was captured at 450 nm. Samples were compared to serial-fold dilution of recombinant protein. […]
# human TLR4 = human TLR4 (Homo sapiens, UniProt O00206); test: Pull-down assay with His-tagged human TLR4; format: binding; settings: nickel-NTA agarose beads, anti-hRetn blot
# Chain of human TLR4 (O00206 24-839): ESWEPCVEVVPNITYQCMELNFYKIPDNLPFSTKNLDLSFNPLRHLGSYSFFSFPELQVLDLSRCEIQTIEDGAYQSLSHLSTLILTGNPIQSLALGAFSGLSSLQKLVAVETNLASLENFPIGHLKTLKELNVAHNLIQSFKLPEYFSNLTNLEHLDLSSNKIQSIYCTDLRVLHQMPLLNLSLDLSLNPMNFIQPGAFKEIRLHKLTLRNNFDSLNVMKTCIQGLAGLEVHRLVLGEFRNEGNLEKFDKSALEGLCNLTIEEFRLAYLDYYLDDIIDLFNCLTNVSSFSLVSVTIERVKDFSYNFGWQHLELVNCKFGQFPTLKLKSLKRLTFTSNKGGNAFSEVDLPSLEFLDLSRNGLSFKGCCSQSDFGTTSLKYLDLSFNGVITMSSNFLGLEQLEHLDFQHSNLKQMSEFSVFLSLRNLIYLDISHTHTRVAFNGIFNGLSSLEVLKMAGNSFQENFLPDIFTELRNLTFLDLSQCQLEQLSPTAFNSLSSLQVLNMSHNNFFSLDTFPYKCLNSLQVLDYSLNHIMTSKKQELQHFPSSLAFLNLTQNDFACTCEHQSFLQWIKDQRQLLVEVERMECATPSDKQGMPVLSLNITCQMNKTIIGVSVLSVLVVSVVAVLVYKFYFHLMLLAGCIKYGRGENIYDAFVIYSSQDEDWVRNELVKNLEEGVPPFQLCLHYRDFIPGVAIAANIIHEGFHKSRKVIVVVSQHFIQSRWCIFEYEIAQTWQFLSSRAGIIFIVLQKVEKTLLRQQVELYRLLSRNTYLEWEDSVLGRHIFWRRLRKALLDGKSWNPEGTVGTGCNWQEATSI
# Procedure: Pull-down Assay. 1 μg/ml protein His-tagged MBP, human TLR4 and human CAP1 were added to nickel-nitrilotriacetic acid-agarose beads (Invitrogen) in binding buffer (50 mM NaH2PO4, 500 mM NaCl, 10 mM Imidazole, pH 8.0) and mixed for 1 hour at 4° C., followed by washing and 1 h incubation at 4° C. with hRetn (E. coli-derived, Peprotech or 293T cell-derived, LifeSpan Biosciences) in binding buffer. Beads were washed in wash buffer (50 mM NaH2PO4, 500 mM NaCl, 20 mM Imidazole, pH 8.0), and complex protein eluted with elution buffer (50 mM NaH2PO4, 500 mM NaCl, 250 mM Imidazole, pH 6.0). His-MBP, His-TLR4 and His-CAP1 were detected by anti-His antibody (Abcam), and hRetn was detected by anti-hRetn antibody (donated by Mitchell Lazar) by Western Blot. For the N-peptide binding experiment, 1 μg/ml His-tagged human TLR4 with 500 ng/ml N-peptide or 10% TFE control was added to the beads in binding buffer and mixed for 30 min at 4° C., followed by co-immunoprecipitation using 1 μg/ml Flag-hRetn (LifeSpan Biosciences), anti-His or anti-Flag (Sigma).
# CD14+CD11b+ monocytes = test: Competitive resistin/LPS binding assay on human PBMCs (flow cytometry); format: cell-based; settings: for LPS binding to CD14+CD11b+ monocytes: pre-incubation before LPS-biotin, on ice
# Procedure: Human PBMCs. Human buffy coat was purchased from Zen-bio. Buffy coat was overlaid on top of Histopaque-1077 and spun at 700g at 25° C. with no brake and PBMCs were recovered from the interphase. PBMCs were plated in 96-well plates and stimulated with mammalian-derived human resistin (1 μg/mL, LifeSpan Biosciences) or hRetn N-peptide (1 μg/mL). After 24 hours, ultrapure LPS (100 ng/mL, Invivogen) was added and supernatants recovered for ELISA at 24 hours. Where indicated, cells were incubated for 4 hours with STAT3 (5, 15-DPP, 50 μM) or TBK1 (BX-795, 1 μM) inhibitors prior to hRetn treatment. For the hRetn competitive binding assay, 1×10^6 cells were incubated with recombinant hRetn (0.5 μg), washed in PBS then incubated with 0.5 μg LPS-biotin (incubations were 30 minutes on ice). Cells were washed in FACS buffer, treated with Fc block, and stained with BV605-conjugated streptavidin and α-human primary antibodies: CD14 (clone M5E2), CD11 b (clone M1/70) and MD2/TLR4 (clone HTA125) purchased from Affymetrix.
# [1] = peritoneal exudate cells, flow cytometry
molecule,measurement,setting,value
B1,survival after LPS injection,C57BL/6 mice; listed as recombinant hRetn,protected C57BL/6 mice against LPS-induced mortality; also recorded: resistant to LPS-induced mortality
same,survival after LPS injection,C57BL/6 mice; listed as recombinant hRetn protein,protected against an otherwise lethal dose of LPS
same,IFNγ level,C57BL/6 mice; 6 hours after LPS,significant reduction
same,IL-6 level,C57BL/6 mice; 6 hours after LPS,significant reduction
same,IL-10 expression,C57BL/6 mice; 6 hours after LPS,no change
same,TNFα level,C57BL/6 mice; 6 hours after LPS,significant reduction
same,lung vascular permeability (Evan's blue dye),C57BL/6 mice; 6 hours after LPS,significantly reduced LPS-induced vascular permeability
same,rectal body temperature (LPS-induced temperature drop),C57BL/6 mice; 6 hours after LPS,modest protection from the LPS-induced temperature drop
same,LPS-induced neutrophils in the peritoneal cavity,C57BL/6 mice; [1],significantly reduced LPS-induced neutrophils in the peritoneal cavity
same,monocytes in the peritoneal cavity,C57BL/6 mice; [1],increased monocytes
same,hRetn in pull-down elution with his-TLR4 (Western blot),human TLR4,only present in the elution with his-TLR4
same,hRetn in pull-down elution with his-TLR4 (Western blot),human TLR4; listed as mammalian-derived hRetn,only detected when pulled down with his-TLR4
same,cell population binding hRetn in human PBMC,CD14+CD11b+ monocytes; flow cytometry,CD11b+CD14+ monocytes were the dominant population that bound hRetn
same,LPS-promoted surface MD2/TLR4 complex formation,"CD14+CD11b+ monocytes; human PBMC, flow cytometry",abrogated
same,LPS binding to CD14+CD11b+ monocytes,CD14+CD11b+ monocytes,significantly abrogated
same,LPS binding to CD14+CD11b+ monocytes,CD14+CD11b+ monocytes; listed as full-length hRetn,inhibited LPS binding
